Assay results: the supplement of paper PMC10065799, “High-throughput profiling of sequence recognition by tyrosine kinases and SH2 domains using bacterial peptide display” (eLife, 2023)

Key:
AncSZ = assay: phosphorylation enrichment, bacterial display (enrichment ratio); higher = better substrate or ligand; peptides without Tyr show the background
EPHB1 = EPHB1 (UniProt P54762); assay: as above
EPHB2 = EPHB2 (UniProt P29323); assay: as above
FGFR1 = FGFR1 (UniProt P11362); assay: as above
FGFR3 = FGFR3 (UniProt P22607); assay: as above
Fer (mouse) = assay: as above
Fes = Fes (UniProt P07332); assay: as above
Chain of Fes (P07332 whole entry, looked up): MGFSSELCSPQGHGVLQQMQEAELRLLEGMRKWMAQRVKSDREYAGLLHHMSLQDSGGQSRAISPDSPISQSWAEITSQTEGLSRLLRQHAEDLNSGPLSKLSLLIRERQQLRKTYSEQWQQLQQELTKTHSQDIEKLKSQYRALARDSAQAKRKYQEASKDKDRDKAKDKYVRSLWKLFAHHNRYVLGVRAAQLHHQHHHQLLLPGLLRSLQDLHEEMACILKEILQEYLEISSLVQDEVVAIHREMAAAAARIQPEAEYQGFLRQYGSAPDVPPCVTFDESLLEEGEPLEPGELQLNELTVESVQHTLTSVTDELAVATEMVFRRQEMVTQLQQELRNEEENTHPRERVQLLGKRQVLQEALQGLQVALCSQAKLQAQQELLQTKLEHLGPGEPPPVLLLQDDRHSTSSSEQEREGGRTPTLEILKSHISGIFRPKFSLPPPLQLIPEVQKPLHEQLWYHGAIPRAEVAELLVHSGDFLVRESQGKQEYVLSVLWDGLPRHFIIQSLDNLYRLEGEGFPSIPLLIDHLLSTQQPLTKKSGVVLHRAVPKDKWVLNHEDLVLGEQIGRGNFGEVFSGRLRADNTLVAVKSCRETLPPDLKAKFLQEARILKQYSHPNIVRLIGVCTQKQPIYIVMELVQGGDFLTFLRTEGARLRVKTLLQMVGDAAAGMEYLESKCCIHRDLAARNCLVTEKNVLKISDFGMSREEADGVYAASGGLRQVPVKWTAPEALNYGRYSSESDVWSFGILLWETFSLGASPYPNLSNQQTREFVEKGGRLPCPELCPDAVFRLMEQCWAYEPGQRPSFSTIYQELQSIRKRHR

Fyn = Fyn (UniProt P06241); assay: as above
Hck = Hck (UniProt P08631); assay: as above
Jak2 = Jak2 (UniProt O60674); assay: as above
Chain of Jak2 (O60674 whole entry, looked up): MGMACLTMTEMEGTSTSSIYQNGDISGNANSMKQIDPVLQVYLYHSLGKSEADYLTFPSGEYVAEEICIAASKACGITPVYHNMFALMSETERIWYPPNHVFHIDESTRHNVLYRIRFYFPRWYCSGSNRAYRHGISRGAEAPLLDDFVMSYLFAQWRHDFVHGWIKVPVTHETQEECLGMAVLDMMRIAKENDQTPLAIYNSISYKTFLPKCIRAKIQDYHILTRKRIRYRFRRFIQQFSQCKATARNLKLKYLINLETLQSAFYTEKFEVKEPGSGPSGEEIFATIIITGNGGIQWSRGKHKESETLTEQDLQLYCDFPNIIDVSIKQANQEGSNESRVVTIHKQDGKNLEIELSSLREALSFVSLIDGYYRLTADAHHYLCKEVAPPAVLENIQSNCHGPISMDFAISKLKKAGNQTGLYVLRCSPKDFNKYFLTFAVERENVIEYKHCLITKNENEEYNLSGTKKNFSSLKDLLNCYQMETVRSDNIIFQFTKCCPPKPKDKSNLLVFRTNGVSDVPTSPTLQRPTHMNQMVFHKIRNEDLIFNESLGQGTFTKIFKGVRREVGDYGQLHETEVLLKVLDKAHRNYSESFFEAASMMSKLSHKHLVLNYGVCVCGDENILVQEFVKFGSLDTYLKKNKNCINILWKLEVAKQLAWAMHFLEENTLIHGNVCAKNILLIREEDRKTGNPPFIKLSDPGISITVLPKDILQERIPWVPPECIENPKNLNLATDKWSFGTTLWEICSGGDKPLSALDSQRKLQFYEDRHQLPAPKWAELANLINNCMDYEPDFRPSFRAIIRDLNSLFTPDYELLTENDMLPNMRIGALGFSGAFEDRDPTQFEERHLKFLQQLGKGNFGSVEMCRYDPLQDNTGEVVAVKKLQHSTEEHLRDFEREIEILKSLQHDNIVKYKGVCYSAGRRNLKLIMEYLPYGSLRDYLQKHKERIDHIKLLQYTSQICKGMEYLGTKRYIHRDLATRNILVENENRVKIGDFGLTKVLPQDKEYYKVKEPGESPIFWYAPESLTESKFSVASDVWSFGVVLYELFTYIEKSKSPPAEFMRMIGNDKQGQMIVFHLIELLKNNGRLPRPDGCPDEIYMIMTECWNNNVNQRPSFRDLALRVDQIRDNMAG

MERTK = MERTK (UniProt Q12866); assay: as above
Chain of MERTK (Q12866 whole entry, looked up): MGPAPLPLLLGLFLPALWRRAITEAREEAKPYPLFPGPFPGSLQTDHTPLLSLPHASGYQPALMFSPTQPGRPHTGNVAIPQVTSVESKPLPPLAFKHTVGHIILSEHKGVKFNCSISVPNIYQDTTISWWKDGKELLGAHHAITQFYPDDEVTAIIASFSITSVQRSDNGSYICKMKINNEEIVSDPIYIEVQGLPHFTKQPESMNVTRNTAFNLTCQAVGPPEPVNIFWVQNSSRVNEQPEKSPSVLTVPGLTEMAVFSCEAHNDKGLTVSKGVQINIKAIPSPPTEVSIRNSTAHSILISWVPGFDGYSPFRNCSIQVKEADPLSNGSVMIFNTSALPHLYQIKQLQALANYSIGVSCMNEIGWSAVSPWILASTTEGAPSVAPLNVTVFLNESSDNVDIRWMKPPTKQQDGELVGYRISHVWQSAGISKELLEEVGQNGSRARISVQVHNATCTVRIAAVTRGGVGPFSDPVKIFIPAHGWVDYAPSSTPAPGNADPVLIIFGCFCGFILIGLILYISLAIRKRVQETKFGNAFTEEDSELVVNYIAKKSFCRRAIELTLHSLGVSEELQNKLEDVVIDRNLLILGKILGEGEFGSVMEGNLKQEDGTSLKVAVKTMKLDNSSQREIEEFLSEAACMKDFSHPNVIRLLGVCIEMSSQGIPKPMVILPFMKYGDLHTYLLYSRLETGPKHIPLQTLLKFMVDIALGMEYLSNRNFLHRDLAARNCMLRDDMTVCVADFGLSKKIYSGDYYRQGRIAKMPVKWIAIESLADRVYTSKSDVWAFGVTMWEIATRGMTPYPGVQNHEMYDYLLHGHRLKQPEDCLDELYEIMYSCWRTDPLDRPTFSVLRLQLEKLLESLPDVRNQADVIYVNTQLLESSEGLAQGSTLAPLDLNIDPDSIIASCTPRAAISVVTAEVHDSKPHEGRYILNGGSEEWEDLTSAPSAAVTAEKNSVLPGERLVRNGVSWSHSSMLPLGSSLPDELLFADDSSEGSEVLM

c-Abl (mouse) = assay: as above
c-Src = assay: as above
Grb2 SH2 = Grb2 SH2 (UniProt P62993); assay: SH2 binding enrichment of the phosphorylated peptide, bacterial display (enrichment ratio); higher = better substrate or ligand; peptides without Tyr show the background
SHP2-C SH2 = assay: as above
c-Src SH2 = assay: as above
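Throughout, for SH2 binding enrichment of the phosphorylated peptide, bacterial display: peptide library displayed on the E. coli surface as eCPX fusions, selected cells deep-sequenced, score is each peptide's frequency after selection divided by its frequency in the input.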
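Throughout, for phosphorylation enrichment, bacterial display: 11-residue human phosphosite peptides and single-mutation variants displayed on the E. coli surface, counted by deep sequencing, each peptide's frequency after selection divided by its frequency in the unselected input library; frequency after pTyr selection over input frequency; kinase dosed for 20-30% of maximal phosphorylation in three min.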

Chain of EPHB2 (P29323 whole entry, looked up): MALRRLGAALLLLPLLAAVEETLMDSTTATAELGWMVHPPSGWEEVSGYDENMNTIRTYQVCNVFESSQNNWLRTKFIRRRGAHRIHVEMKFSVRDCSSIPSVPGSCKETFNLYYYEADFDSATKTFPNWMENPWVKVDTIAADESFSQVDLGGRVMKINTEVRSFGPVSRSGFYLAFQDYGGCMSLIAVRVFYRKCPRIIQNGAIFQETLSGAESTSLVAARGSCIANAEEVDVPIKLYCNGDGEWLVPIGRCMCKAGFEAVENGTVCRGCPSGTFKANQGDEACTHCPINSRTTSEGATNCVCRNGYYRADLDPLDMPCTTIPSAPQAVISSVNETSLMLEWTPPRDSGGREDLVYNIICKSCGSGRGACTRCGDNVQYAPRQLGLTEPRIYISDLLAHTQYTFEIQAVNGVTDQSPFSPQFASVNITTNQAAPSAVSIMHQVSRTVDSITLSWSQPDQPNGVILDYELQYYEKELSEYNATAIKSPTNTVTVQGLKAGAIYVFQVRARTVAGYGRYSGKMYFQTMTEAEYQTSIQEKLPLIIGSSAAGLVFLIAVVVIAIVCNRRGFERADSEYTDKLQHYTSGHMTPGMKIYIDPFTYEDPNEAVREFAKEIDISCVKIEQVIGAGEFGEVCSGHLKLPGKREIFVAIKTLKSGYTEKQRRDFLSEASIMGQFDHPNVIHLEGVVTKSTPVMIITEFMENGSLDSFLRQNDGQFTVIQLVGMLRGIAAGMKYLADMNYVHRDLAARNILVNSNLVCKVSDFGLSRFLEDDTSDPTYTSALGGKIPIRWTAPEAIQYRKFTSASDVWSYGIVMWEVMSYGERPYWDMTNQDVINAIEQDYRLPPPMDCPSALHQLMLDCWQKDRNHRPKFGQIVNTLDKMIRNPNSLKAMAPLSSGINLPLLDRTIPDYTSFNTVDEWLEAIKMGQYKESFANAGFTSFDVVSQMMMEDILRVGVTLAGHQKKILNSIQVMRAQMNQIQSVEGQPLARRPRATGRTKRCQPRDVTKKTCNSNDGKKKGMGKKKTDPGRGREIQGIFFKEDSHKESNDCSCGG
Chain of EPHB1 (P54762 whole entry, looked up): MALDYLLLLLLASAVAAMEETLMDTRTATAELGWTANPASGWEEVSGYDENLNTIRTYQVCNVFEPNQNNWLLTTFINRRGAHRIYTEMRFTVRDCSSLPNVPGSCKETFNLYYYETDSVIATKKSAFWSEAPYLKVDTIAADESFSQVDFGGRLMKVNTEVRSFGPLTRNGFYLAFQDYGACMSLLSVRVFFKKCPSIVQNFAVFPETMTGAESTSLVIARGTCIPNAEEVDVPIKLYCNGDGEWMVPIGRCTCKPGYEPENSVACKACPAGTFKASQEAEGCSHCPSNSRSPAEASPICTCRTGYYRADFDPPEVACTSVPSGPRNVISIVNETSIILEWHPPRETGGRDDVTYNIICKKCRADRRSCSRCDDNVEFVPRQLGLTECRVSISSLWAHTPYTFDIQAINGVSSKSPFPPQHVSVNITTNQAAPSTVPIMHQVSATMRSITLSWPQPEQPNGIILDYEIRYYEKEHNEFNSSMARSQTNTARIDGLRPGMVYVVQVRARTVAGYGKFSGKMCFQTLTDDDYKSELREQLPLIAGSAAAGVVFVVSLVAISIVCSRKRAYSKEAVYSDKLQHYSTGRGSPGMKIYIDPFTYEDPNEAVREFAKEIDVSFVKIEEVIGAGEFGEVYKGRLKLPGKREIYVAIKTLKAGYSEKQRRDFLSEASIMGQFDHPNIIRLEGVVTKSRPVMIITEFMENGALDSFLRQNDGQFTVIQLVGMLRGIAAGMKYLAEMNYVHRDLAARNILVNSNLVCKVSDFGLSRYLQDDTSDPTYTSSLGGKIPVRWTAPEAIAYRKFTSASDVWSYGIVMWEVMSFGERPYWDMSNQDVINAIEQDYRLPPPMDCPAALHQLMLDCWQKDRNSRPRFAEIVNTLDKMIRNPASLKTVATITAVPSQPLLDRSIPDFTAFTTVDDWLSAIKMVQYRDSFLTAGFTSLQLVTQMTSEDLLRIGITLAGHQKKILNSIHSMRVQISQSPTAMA

| SH2 binding enrichment (Grb2 SH2) | SH2 binding enrichment (SHP2-C SH2) | SH2 binding enrichment (c-Src SH2) | Sequence | phosphorylation enrichment (AncSZ) | phosphorylation enrichment (EPHB1) | phosphorylation enrichment (EPHB2) | phosphorylation enrichment (FGFR1) | phosphorylation enrichment (FGFR3) | phosphorylation enrichment (Fer (mouse)) | phosphorylation enrichment (Fes) | phosphorylation enrichment (Fyn) | phosphorylation enrichment (Hck) | phosphorylation enrichment (Jak2) | phosphorylation enrichment (MERTK) | phosphorylation enrichment (c-Abl (mouse)) | phosphorylation enrichment (c-Src) |
| --- | --- | --- | --- | --- | --- | --- | --- | --- | --- | --- | --- | --- | --- | --- | --- | --- |
| 0.834 | 0.569 | 0.473 | RLAKTYETTLE [ALB_Y377] | 0.86 | 0.555 | 0.855 | 0.711 | 0.895 | 0.721 | 1.39 | 0.752 | 0.622 | 1.09 | 0.596 | 0.955 | 0.758 |
| 1.3 | 1.64 | 0.819 | PSQRRYVFFFS [PTEN_Y174_YF] | 1.54 | 0.809 | 0.655 | 0.731 | 1.24 | 0.735 | 1.77 | 0.721 | 0.476 | 1.16 | 0.691 | 1.27 | 0.6 |
| 0.88 | 0.76 | 0.541 | TVFSDYLHPQY [CCPG1_Y569] | 2.34 | 0.727 | 0.505 | 0.699 | 0.723 | 0.398 | 0.944 | 0.43 | 0.457 | 1.36 | 0.417 | 0.785 | 0.498 |
| 1.18 | 1.19 | 2.68 | ARLEFYENEKK [IRS1_Y47_YF] | 1.1 | 0.623 | 0.597 | 0.58 | 0.604 | 0.406 | 0.995 | 0.439 | 0.451 | 0.887 | 0.462 | 0.492 | 0.411 |
| 0.848 | 0.616 | 0.645 | SSMNDYNPLEK [MYOC_Y479_I477N] | 0.797 | 0.422 | 0.454 | 0.456 | 0.578 | 0.397 | 0.977 | 0.4 | 0.479 | 1.07 | 0.614 | 0.625 | 0.502 |
